Blank lines part the entries; values can stand above or below the binder they belong to.
Legend:
[1] = target: recombinant rat beta-NGF (R&D Systems) (rat) (UniProt P25427); test: cell-based or functional assay
[2] = target: recombinant human NGF 1-120 (human) (UniProt P01138); test: cell-based or functional assay
recombinant human NGF 1-120 (human), sequence (P01138 other isoform, or with tags, fused parts or gaps): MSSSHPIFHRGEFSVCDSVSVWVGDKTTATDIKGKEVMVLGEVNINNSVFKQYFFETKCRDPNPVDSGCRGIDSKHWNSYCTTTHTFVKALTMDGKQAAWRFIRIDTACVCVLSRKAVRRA

recombinant rat beta-NGF (R&D Systems) (rat), sequence (P25427 122-241 limits assumed): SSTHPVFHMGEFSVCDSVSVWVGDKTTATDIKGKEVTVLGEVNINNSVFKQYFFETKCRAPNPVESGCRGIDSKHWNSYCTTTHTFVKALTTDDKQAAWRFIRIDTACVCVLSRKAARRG

- IC50 @ rNGF, NGF neutralization activity as in Example 3 [1]: > 20 nM
- IC50 @ hNGF, NGF neutralization activity as in Example 3 [2]: 0.28 nM
B1: anti-NGF antibody 14D11 (antibody, V domains shown)
VH: EVQLVQSGAEVKKPGESLKISCKGSGYNFTTYWIGWVRQMPGKGLEWMGIIYPGDSDTKYSPSFQGQVTISADKSISTAYLQWSSLKASDTAMYYCARNYYGSGTYYYYYGMNVWGQGTTVTVSS
VL: DIQMTQSPSSVSASVGDRVTITCRASQGISIWLAWYQHKPGKAPKLLIYAASSLQSGVPSRFSGSGSGTDFTLTISSLQPEDFATYYCQQANSFPWTFGQGTKVEIK

- IC50 @ rNGF, NGF neutralization activity as in Example 3 [1]: > 13 nM
- IC50 @ hNGF, NGF neutralization activity as in Example 3 [2]: 0.392 nM
B2: anti-NGF antibody 14D10 (antibody, V domains shown)
VH: EVQLVESGGGLVQPGRSLRLSCTASGFTFEDYAMHWVRQAPGKGLEWVSGISWNRGIIGYADSVKGRFTVSRDNAKNSLYLQMNSLRAEDTALYYCAKEGYYGSGRPGYFYYVMDVWGQGTTVTVSS
VL: EIVLTQSPGTLSLSPGERATLSCRASQSVSSGFLAWFQQKPGQAPRLLIYGASSRATAIPDRFSGSGSGTDFTLTISRLEPEDFAVYYCQQYGSSPYTFGQGTKLEIK
